# Source: article PMC11208452
# Target: T1, BMAL2 (recombinant human, Novus H00056938-Q01) (Homo sapiens) (UniProt Q8WYA1)
# T1 sequence (Q8WYA1 whole entry, looked up): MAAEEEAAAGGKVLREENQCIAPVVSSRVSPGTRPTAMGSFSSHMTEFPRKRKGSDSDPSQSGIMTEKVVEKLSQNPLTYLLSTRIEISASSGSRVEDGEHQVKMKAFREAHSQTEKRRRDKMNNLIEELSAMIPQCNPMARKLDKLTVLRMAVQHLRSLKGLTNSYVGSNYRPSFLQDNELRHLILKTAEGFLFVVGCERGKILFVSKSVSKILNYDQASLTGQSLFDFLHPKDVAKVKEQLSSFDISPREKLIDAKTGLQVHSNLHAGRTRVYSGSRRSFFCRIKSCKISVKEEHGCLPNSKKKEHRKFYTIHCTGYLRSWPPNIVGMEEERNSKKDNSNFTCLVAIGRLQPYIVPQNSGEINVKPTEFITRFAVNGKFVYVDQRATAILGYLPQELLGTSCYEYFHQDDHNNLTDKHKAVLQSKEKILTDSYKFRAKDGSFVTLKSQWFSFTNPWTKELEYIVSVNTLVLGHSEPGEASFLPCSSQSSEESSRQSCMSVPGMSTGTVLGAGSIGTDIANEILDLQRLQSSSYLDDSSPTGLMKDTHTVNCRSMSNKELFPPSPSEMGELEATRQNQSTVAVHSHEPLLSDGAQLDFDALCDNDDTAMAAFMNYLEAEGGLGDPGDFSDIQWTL
# Experiment: SPR
# Settings: BMAL2 immobilized; oligo analyte 50, 100, 200 nM; global 1:1 fit; OpenSPR (text also says BIAcore), 20 C, 30 ul/min; running buffer, salt and pH not stated (immobilization in 10 mM sodium acetate pH 5.5)
sequence,measurement,value
GGCGCAACGCTGAGCAGCT (double strand) [human PD-L1 promoter predicted BMAL2 binding site oligo],Kd,209 nM
